Data as given in the DeepSol protein solubility set.

Assay: soluble on expression in E. coli; label from the status in PepcDB or PDB records

Sequence	soluble on expression in E. coli
MARFLLIIGCATLAALASCESKSGEETPQYWRAILGDICQLPSFPRATGDPTRYVECVRQSSFAADRKDLGIWLLRECLPGYEFVASARRCKTVRSVNKQQELCESANATEYNFCPTASAMQFLVEETREAPRQCACPNGEQNCVCPSPEILEPISAVKKVRRSAQQQPLRFSQYPSCPCPQNQPACTCSTNNQQNEQILVSISCCQQQETTTQAPVQMQPCQCTPTQIQQNCQTTTTQQQYCPQQSAPVVQPQPCPLVQGSGVQNAQYQGICSWMIDPLATDPQSRTHYLQCQPAPNNLFCGRWQRMPCAPGTVFDVQSQVCVWDTNSQPGTLPTPAPYVSTQAPQNAQCGCTGGVQIGSCNQNYQCPGQSVCQVGQNAGQQCMVCCYFRKKARRF	not soluble
MGNELIVSVQNRIQEMQHGEGLRLPTGYSVGNALNSAYLILSDNSKGKSLLEKCHPTSVSKALLNMAIQGLSPAKNQCYFVPYGDQCTLMRSYFGSVSILERLSNVKKVHAEVIFEGDEFEIGSEDGRTVVTNFKPSFLNRDNPIIGAFAWVEQTDGIKVYTIMTKKEIYKSWSKAKTKNVQNDYPQEMAKRTVLSRAAKMFINSSSDNDLLVKAINETTEDEYDNNQPRKDITPNPPNIEKLEKSIFNQDENKKIAQDMIDSIDLNQADKDLQEELNIEFPDPSKNYLATGEVNGDVENEDGPYPF	not soluble
MAENIPLRVQFKRMKAAEWASSDVVLLEGEIGFETDTGFAKFGDGQNTFSKLKYLTGPKGPKGDTGLQGKTGGTGSRGPAGKPGTTDYDQLQNKPDLGAFAQKEETNSKITKLESSKADKNAVYLKAESNAKLDEKLNLKGGVMTGQLQFKPNSGIKPSSSVGGAINIDMSKSEGAAMVMYTNKDTTDGPLMILRSNKDTFDQSVQFVDYKGTTNAVNIVMRQPTTPNFSSALNITSANEGGSAMQIRGVEKALGTLKITHENPSVDKEYDKNAAALSIDIVKKQKGGKGTAAQGIYINSTSGTTGKLLRIRNLNDDKFYVKPDGGFYAKETSQIDGNLKLKDPIANDHAATKAYVDGEVEKLKALLAAKQM	not soluble
MAHSQVGIQLISESTEKTLAELIALCAEHNIIHNEKSPLALVQTDDRLELRKLDEPKLGAVYVDFVGGTMAHRRKFGGGRGEAVAKAVGIKGSALPTVIDATAGLGRDAFVLAAIGCQVRLVERHPVVFLLLQDGLNRAYQDEEIGEMLQQNLHLLNVQHINELDPNSDYADVVYLDPMYPHKQKSALVKKEMRVFQHLVGADLDADELLLPALQLAKKRVVVKRPDYAEFLCGKQPHFSHETKNHRFDIYMGASQC	soluble
DDSLGEAVTTRAEALTIPAVLRARNLLSTTVARTPLVCDGTLPPFVPVAAPPGAATMQTPFHRMLATADDLLFNGVACWALDRDESGTCIGAIHIPLDTWQIEENTVRVNGKAVDPMEVCIFVGIHGGLLTHASETFTDARNLVRAAARVAQNPAALIELRQTNNAQLSPDDVDRIINGYVAARRGRNSGVGFSSSGLEVHEHEMAKENLLIEGRNAAAVDVARAMNVPAAFIDATVGGTSLSYQNAASRMIELVTFGVEPLMSAIEARLNQPDMHADHLANPLKFDPAALLDAIPTTPTIGAQPHGENS	soluble
FKIETTPESRYLAQIGDSVSLTCSTTGCESPFFSWRTQIDSPLNGKVTNEGTTSTLTMNPVSFGNEHSYLCTATCESRKLEKGIQVEIYSFPKDPEIHLSGPLEAGKPITVKCSVADVYPFDRLEIDLLKGDHLMKSQEFLEDADRKSLETKSLEVTFTPVIEDIGKVLVCRAKLHIDEMDSVPTVRQAVKELQVYISPKNT	soluble
MVIDFNRLNPGSTPATTGRTGSTAAGRPDATGADKAGQAATSAPKSGESVQISETAQNMQKVTDQLQTLPVVDNDKVARIKQAIADGTYQVDSERVASKLLDFESQR	not soluble
MDVRQSIHSEHAKTLDTQALRREFLIENIFVADEYTMVYSHIDRIIVGGIMPVSHPVEIGGEVGKQLGVSRLLDRRELGVINIGGAGAIIVDGQRHDIGHRDALYIGKGAKELVFVSNEASRPAKFYYNCAPAHTAYPTKKVSPADVAPVTLGDNLTSNRRTINKYFVPDVLETCQLSMGLTELAPGNLWNTMPCHTHERRMEVYLYFNMEEDSCVFHMMGQPQETRHIVMRNEQAVISPSWSIHSGVGTKAYTFVWGMVGENQVFDDMDHVAVQDLR	not soluble
SLEIRRSDAPRLVDLVRRAQASVNRLATEREALTTRIDSVHGRSVDTALAAMQRRSAKLAGVAAMNPVHGPGLVVTLQDAQRDANGRFPRDASPDDLVVHQQDIEAVLNALWNAGAEAIQMQDQRIIAMSIARCVGNTLLLNGRTYSPPYTIAAIGDAAAMQAALAAAPLVTLYKQYVVRFGLGYCEEVHPDLQIVGYADPVRMHFAQPAGPLDY	soluble
MSLNAPKLVIGANGFLGSHVTRQLVADCAPQKGEVRAMVRPAANTRSIDDLPLTRFHGDVFDTATVAEAMAGCDDVYYCVVDTRAWLRDPSPLFRTNVAGLRNVLDVATDASLRRFVFTSSYATVGRRRGHVATEEDRVDTRKVTPYVRSRVAAEDLVLQYAHDAGLPAVAMCVSTTYGGGDWGRTPHGAFIAGAVFGRLPFTMRGIRLEAVGVDDAARALILAAERGRNGERYLISERMMPLQEVVRIAADEAGVPPPRWSISVPVLYALGALGSLRARLTGKDTELSLASVRMMRSEADVDHGKAVRELGWQPRPVEESIREAARFWAAMRTVGKDPAASEGHHHHHH	not soluble
MAHHHHHHMKLEEVKDIQKIERIGAHSHIRGLGLNDCLDARYCSEGMIGQMSARKAAGIVLRMIKEGRISGRAILLAGQPGTGKTAIAMGIAKALGEDTPFTHISGSEVYSLEMSKTEALTQAFRRSIGVRVKEESEVIEGEVVEIEIEKFNERDINNKNKKLGKMILKTTEMETLYDLGSKMIEALQKENITAGDVICIDKGTGKITKIGKSFARSKDYDAMDPNTLFVQCPEGELQKRKEVVHTVTLHDIDAINSRTQGFLALFSGDTGEIKNEIREHIDMKINEWQEDEKAEIVPGVLFIDEVHMLDIECFSYLNRALESEQSPIVIMATNRGITHIRGTDYKAPHGIPLDLLDRTLIIPTYPYKHQDILKILEQRAEEEDVDIDEYAKELLCKIASESSLRYALHLITLANLVSKKRKATEVTVQDVRRVYNLFIDVKRSTQYLIEYQNEFMFSELPKEELSVKEEDSSEEKRELHEKNSENSSTSN	soluble
MGSDKIHHHHHHMINELKKTKSRSEIKREQILHSAIELFCVQGFPNTSMDEVAKLAGVSKQTVYAHFGSKDDLFVAAIESRCIAHQLTGDLLFDPKHPEVSIMRFSQQFGEMIVSHETMAVFKTCVAQAESHPELPRLFFNAGPKHVLGLLSGFLQLVDKQGGYHFPKPHDSAIRLCLMLFGELKLRLELGLEVEELRLSRDAYIEETAQMFLRAHRV	not soluble
MGSDKIHHHHHHMNPINWLVLVATVAGRNGTLRVRLWRQMKAIGAAALRDGVYLLPARPELRQMLANWRDELLAADGMAHVLQVVEDDPATQAGWRALFDRSEAYQQWGEALAALLAQPPGAESDARRSLRQLRKELEAIAAIDFFAGESLKSARRQCNDAEKWLTRHYSPDEPLAVGGDIPRLELADYQQRLWATRARPWVDRVASAWLIRRFIDPAARFAWLTDVHACPAEALGFDFDGAAFTHIGERVTFEVLLASFGLEHDPALSRLGELVHALDVGGSVVPEGTGFEAVLGGSRSRIADDDLLLADISNVLDSLYAHFQEAARPQGSRAPTL	not soluble
AQKLSATSRILSSSRGPAPDDIADFFGTDRAAQHITLRRLRLGNGRPYAIDNGWYNSEFAPDLLENDVYNSVYSILDRVYGVPVTQAEQTVTAVAADEDTARLLDVTPGAPLLRILRQSLSGDKPVEWCVSLYRTDRYS	not soluble
MAHHHHHHMPSSSPLLGPVFEVITPRLWVRYLQRYLDVPELLTLSETCWTFFVRCNEEPLWRELCLRPPYIDVQQKLGLFTFRGSWKYTVCAYRAEGAGADRQSSRSSTVVLAQSRSIADASLRFNVLLPRIVSCLQVSGEMSSDDGAAWMSQLRSPCAAGTGAASEVSVGLDNGRDEGAAEATVGAEMSVGAWQENVLGKPYAPTLAVKYLSLSAGAINYFMRDGTFLRPPLHALRQPQHRLVRPHTEFTDYNWYGTCLLDLVPLPQWCTNAQFFATLRWKTSGNTRRLQCCGHATAALDDTGGVRGPSHLPDELRGVPGVVDRRYRLSVDAFQREYEVPNMPVVLTGCIEDWPARDTWQDIHFFHCFASEALRANGRTADGRRFRMSAADYLAYEVATNAEKPMYVFDKAALQRSTALRADYAIPPYFTEDFFSYMTEEDRPDYRWLLVGPDGSGSPFHTDPHGTCAWNAVLSGCKRVTLYPPHVVPPGVEEEWIHSDYYASEPCLRWYRTRGDSMPSGSAVCGTFSKEHAGEAYHGSARELPPVEALVFPGDLVFIPSGWWHQVLNIGHTVAVTHNLCSPLTFPRVVADMNAYADRTVRKRFQCALRRAGRDELAVQLRVPGAKRGVYAGHLL	not soluble
MGSDKIHHHHHHMVANPALPEGISDLPAGTLASVVTYLEMKTPPPIKGLETPPGLRLLRHDAPDVEWYCRLYRLVGEDYLWFSRLMWDYATLAAHLASDRVEVWSLQKQGVDLGLLELEWMQDGDCELSFFGLSKELIGAGVGRWLMEHATARAFSREISRFFVHTCTLDSPQALGFYMRSGFVPYGRAVEIAEDPRLTGLIPKTAAAHVPLIQR	not soluble
MSLQLRSRAAFKLEFLLDRYRVVRKGDAVIEIGSSPGGWTQVLNSLARKIISIDLQEMEEIAGVRFIRCDIFKETIFDDIDRALREEGIEKVDDVVSDAMAKVSGIPSRDHAVSYQIGQRVMEIAVRYLRNGGNVLLKQFQGDMTNDFIAIWRKNFSSYKISKPPASRGSSSEIYIMFFGFKAEGHHHHHH	soluble
MAHHHHHHMQFHQFLCRFRNQVLLKGAFWSCPHQFRLGLHDRWKVNLVKVHIGVLGFFFKTHGESVVSGAKGDNLHGCRNGGVSALKVTNAFLNKIRNDQHTQIVPTIYQRGTPRQLSHEMSKIRILKVPMEHRRAFAHDTVIVSTLHRSVKTDVRGDTHRGTVLLHWKMHCLR	not soluble
MSLNNKVIKKEVEEYLSRYFEGKDNYNKRVYESMNYSLNAGGKRVRPLLLLASYAIYNKDYKEVIDIAAAIEMIHTYSLIHDDLPCMDNDDLRRGRPTNHKIFGYSIALLAGDGLLNEAMNIMFKYCIGKGEEALKACLMISKAASSDGMIGGQVVDILSEGKKINEDELRYMHKKKTGELIKAAVVSGAILGGAPLHDVELLSQYGDKLGLAFQIEDDILDIIGDTKIMGKTSKSDLENDKCTYVTLYGIDKCKSICRELTDECLDIIGKIQGNTELLKEITELLLKRNREGHHHHHH	soluble
MGSDKIHHHHHHMRKAERLNDMMLFLNDKNSFQLSDIMAKYGVSRSTAIRDIQSLEEIGMPIYSERGRNGHYRVLRNRLLSPIVFNIDEVFALYFSMLTLKAYETTPFHLSVEKLKTKFERCLSAEKIEMLRKIEEVFSLGYIKHNNQCEFLDVILQFTMEEKVCQINYDNNGTEKTYIVQFYNISSAYGQWYVTSYNFETKRMQVFRCDKILALKENDTFEAKKMEELKGVADSFNKKADVTTFEVEIASNGVDLFFKENYPSMKLRQQEGRNCIHGFYHKGEERFIINYLLGYGEKIIAIQPDSLRDMLLNELDTIKKHMQNLSS	not soluble
MSTEPQFENPFIDRQLDGSKIHEISGHRFKATALVQPTCCAICSKLIYGLGKQGYRCLGCETVVHKRCHSLINDRCNFGPSSPRQPPPQELSSDSGELRHRIPSPTEPQVSTNHHFNKHFYTRPTFCDHCGSLLYGLSKQGVQCSDCLANVHHRCKEKAVHNCIVSSQ	not soluble
MIFLSFKKSFKNITIEGKFTFEKGFNVILGPSGAGKSTVIKVMCGIEKPDEGFMKCCDEVFFDTKKGVFLPPQKRRLGVVFQSHNLFPHMTVRENIEFALKKAKEPQFTVEELLEKFNLKGHENKYPGELSGGQRQRVAVIRAIVFNPRAVLMDEPFSSLDFKTKLSIMEFIKSVHIEKPVIIVTHDLFEALYLGQKFFLMDNGKKVKEGGKEVLKEYVDLEKIKKFLS	soluble
